Reference: US20250213627A1 (BAYLOR COLLEGE OF MEDICINE, published 2025)

Legend:
[1] = target: Kv1.3 potassium channel (species not stated for this experiment); test: cell-based or functional assay
[2] = target: mKv1.3 channel stably expressed in mouse L929 fibroblasts (mouse, UniProt P16390 1-528); test: cell-based or functional assay
Sequence of mKv1.3 channel stably expressed in mouse L929 fibroblasts (P16390 whole entry): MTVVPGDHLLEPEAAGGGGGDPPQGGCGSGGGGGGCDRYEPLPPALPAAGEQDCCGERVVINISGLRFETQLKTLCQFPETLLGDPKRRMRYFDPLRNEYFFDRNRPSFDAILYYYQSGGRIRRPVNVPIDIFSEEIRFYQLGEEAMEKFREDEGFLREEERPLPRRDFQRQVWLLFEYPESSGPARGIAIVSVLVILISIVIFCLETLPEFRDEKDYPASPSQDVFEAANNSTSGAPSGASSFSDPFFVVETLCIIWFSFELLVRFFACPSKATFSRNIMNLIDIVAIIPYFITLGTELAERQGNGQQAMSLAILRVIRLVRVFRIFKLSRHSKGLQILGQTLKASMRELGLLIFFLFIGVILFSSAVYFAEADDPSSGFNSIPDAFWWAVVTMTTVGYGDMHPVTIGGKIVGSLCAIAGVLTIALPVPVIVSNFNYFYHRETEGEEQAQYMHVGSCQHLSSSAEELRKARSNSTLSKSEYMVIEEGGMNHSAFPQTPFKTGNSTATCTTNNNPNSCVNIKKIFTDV

B1: synthetic ShK-235 (peptide)
peptide: RSCIDTIPKSRCTAFKCKHSIKYRLSFCRKTCGTCA
modifications: 3 disulfide bonds (oxidatively folded synthetic peptide)
[1]
  IC50 of block of Kv1.3 channel function (whole-cell patch-clamp): 0.062 nM
[2]
  IC50 of block of mKv1.3 currents (whole-cell patch-clamp, L929 cells): 0.0693 nM
